Data published in PMC4002121, “Trimethylation of Histone H3 Lysine 36 by Human Methyltransferase PRDM9 Protein” (The Journal of Biological Chemistry, 2014).

Experiments:
Assay in all cases: purified protein, by the assay type
Conditions in all cases: other: apparent Km of the peptide, AdoMet saturating 448 μM, 1 nM PRDM9, 10 mM Tris-HCl pH 8.5, 0.01% Triton X-100, 10 mM DTT, 20 min, 23 °C, mean ± S.D., n = 3, NA = not active
[1] = substrate: CC(C)C[C@H](NC(=O)[C@H](CCC(N)=O)NC(=O)[C@H](CCCCN)NC(=O)[C@H](CCCNC(=N)N)NC(=O)[C@@H]1CCCN1C(=O)[C@H](C)NC(=O)[C@H](CCCCN)NC(=O)CNC(=O)CNC(=O)[C@@H](NC(=O)[C@H](CO)NC(=O)[C@H](CCCCN)NC(=O)[C@H](CCCNC(=N)N)NC(=O)[C@H](C)NC(=O)[C@@H](NC(=O)[C@H](CCC(N)=O)NC(=O)[C@H](CCCCN(C)C)NC(=O)[C@@H](NC(=O)[C@H](CCCNC(=N)N)NC(=O)[C@H](C)N)[C@@H](C)O)[C@@H](C)O)[C@@H](C)O)C(=O)N[C@@H](C)C(=O)N[C@H](C(=O)N[C@@H](CCCCN)C(=O)N[C@@H](C)C(=O)N[C@@H](C)C(=O)O)[C@@H](C)O
Method: (§1) To avoid the binding capacity limitation of scintillation proximity assay plates, a membrane-based assay was used for all kinetic studies. […] Apparent Km values were determined for AdoMet in reactions with each peptide by varying the AdoMet concentration. The highest concentration of AdoMet was 448 μM (5 μM [^3H]AdoMet plus 443 μM cold AdoMet). Dilutions of AdoMet were then made with assay buffer. The peptide concentration was kept at 5 μM. The assay buffer was 10 mM Tris-HCl, pH 8.5, 0.01% Triton X-100, and 10 mM DTT in a final volume of 20 μl. The reactions were started by addition of 1 nM PRDM9. The reaction mixtures were incubated for 20 min at 23 °C and quenched by adding 20 μl of 7.5 M guanidinium hydrochloride. 10 μl of quenched reaction mixture was spotted onto streptavidin-coated membrane squares (SAM2® Biotin capture membrane, Promega). The membrane was washed three times in 2 M NaCl for 2 min each time, then in water three times for 30 s each. The membrane was dried at 50 °C for 1 h and then each spotted square was cut from the membrane and placed in a scintillation vial. The amount of methylated peptide was quantified by tracing the radioactivity (cpm) as counted by a TriCarb liquid scintillation counter (PerkinElmer Life Sciences).

[2] = substrate: CC(C)[C@H](NC(=O)CNC(=O)CNC(=O)[C@@H](NC(=O)[C@H](C)NC(=O)[C@@H]1CCCN1C(=O)[C@H](C)NC(=O)[C@H](CO)NC(=O)[C@H](CCCCN)NC(=O)[C@H](CCCNC(=N)N)NC(=O)[C@H](C)NC(=O)[C@H](C)NC(=O)[C@H](CCCCN)NC(=O)[C@@H](NC(=O)[C@H](C)N)[C@@H](C)O)[C@@H](C)O)C(=O)N[C@@H](CCCCN(C)C)C(=O)N[C@@H](CCCCN)C(=O)N1CCC[C@H]1C(=O)N[C@@H](Cc1c[nH]cn1)C(=O)N[C@@H](CCCNC(=N)N)C(=O)N[C@@H](Cc1ccc(O)cc1)C(=O)N[C@@H](CCCNC(=N)N)C(=O)N1CCC[C@H]1C(=O)NCC(=O)O
Method: as §1

[3] = substrate: CC(C)[C@H](NC(=O)CNC(=O)CNC(=O)[C@@H](NC(=O)[C@H](C)NC(=O)[C@@H]1CCCN1C(=O)[C@H](C)NC(=O)[C@H](CO)NC(=O)[C@H](CCCCN)NC(=O)[C@H](CCCNC(=N)N)NC(=O)[C@H](C)NC(=O)[C@H](C)NC(=O)[C@H](CCCCN)NC(=O)[C@@H](NC(=O)[C@H](C)N)[C@@H](C)O)[C@@H](C)O)C(=O)N[C@@H](CCCCN)C(=O)N[C@@H](CCCCN)C(=O)N1CCC[C@H]1C(=O)N[C@@H](Cc1c[nH]cn1)C(=O)N[C@@H](CCCNC(=N)N)C(=O)N[C@@H](Cc1ccc(O)cc1)C(=O)N[C@@H](CCCNC(=N)N)C(=O)N1CCC[C@H]1C(=O)NCC(=O)O
Method: as §1

[4] = substrate: CNCCCC[C@H](NC(=O)[C@@H](NC(=O)CNC(=O)CNC(=O)[C@@H](NC(=O)[C@H](C)NC(=O)[C@@H]1CCCN1C(=O)[C@H](C)NC(=O)[C@H](CO)NC(=O)[C@H](CCCCN)NC(=O)[C@H](CCCNC(=N)N)NC(=O)[C@H](C)NC(=O)[C@H](C)NC(=O)[C@H](CCCCN)NC(=O)[C@@H](NC(=O)[C@H](C)N)[C@@H](C)O)[C@@H](C)O)C(C)C)C(=O)N[C@@H](CCCCN)C(=O)N1CCC[C@H]1C(=O)N[C@@H](Cc1c[nH]cn1)C(=O)N[C@@H](CCCNC(=N)N)C(=O)N[C@@H](Cc1ccc(O)cc1)C(=O)N[C@@H](CCCNC(=N)N)C(=O)N1CCC[C@H]1C(=O)NCC(=O)O
Method: as §1

[5] = substrate: CNCCCC[C@H](NC(=O)[C@@H](NC(=O)[C@H](CCCNC(=N)N)NC(=O)[C@H](C)N)[C@@H](C)O)C(=O)N[C@@H](CCC(N)=O)C(=O)N[C@H](C(=O)N[C@@H](C)C(=O)N[C@@H](CCCNC(=N)N)C(=O)N[C@@H](CCCCN)C(=O)N[C@@H](CO)C(=O)N[C@H](C(=O)NCC(=O)NCC(=O)N[C@@H](CCCCN)C(=O)N[C@@H](C)C(=O)N1CCC[C@H]1C(=O)N[C@@H](CCCNC(=N)N)C(=O)N[C@@H](CCCCN)C(=O)N[C@@H](CCC(N)=O)C(=O)N[C@@H](CC(C)C)C(=O)N[C@@H](C)C(=O)N[C@H](C(=O)N[C@@H](CCCCN)C(=O)N[C@@H](C)C(=O)N[C@@H](C)C(=O)O)[C@@H](C)O)[C@@H](C)O)[C@@H](C)O
Method: as §1

B1: PRDM9 (Homo sapiens) (protein)
chain: SEPQDDDYLYCEMCQNFFIDSCAAHGPPTFVKDSAVDKGHPNRSALSLPPGLRIGPSGIPQAGLGVWNEASDLPLGLHFGPYEGRITEDEEAANNGYSWLITKGRNCYEYVDGKDKSWANWMRYVNCARDDEEQNLVAFQYHRQIFYRTCRVIRPGCELLVWYGDEYGQELGIKWGSKWKKELMAGREPKP
- Km [1]: 3 ± 1 µM
- Km [2]: 2.5 ± 0.3 µM
- Km [3]: 1.5 ± 0.2 µM
- Km [4]: 2.4 ± 0.4 µM
- Km [5]: 1 ± 0.2 µM
